Data reported in article PMC2581932 (Cell, 2008).

B1: Pyrococcus furiosus HerA (enzyme, UniProt Q8U1P0 1-551, looked up)
chain: MEEFVGIVRGEASFTSYEFSINPSANVSFGEFVVTKNRDGDLVLGTVRHVKNVNWLLSSVKSNFNSLALDIEEYGESLGENEEVVATVRILGKIEGNELVPNRVPIRNGEYVYKASDDLLQMIYGNDGIEIGTLLLRPNVRIKLDVNELVSRHFAVLAVTGAGKSNAVAVIIKGIVEDVGGTVVVLDPHGDYVNLRLPETGIDLVNIIDGKIRIEDLDPEELADLIGISSSAQIQRHFLSLAWETVKHKNQSLGGESLLEALLDLLNEWISRKTIKYWSEKEGRMKSEDLKSERIETIRGIIFRIRRFLRNYGNIVTSENLVAAIKPGMVNVIDLSPLDENQMKVVVGKFLEAVFEKRVEYEMARKRFEKETSKKKRDEYEEIMTEIESKYPALAYPILVIVEEAHIFAPQGEENDAMRIMGRIAREGRKFGVGLGVVSQRPSKLNEDILSQMNTKIILRIVNPRDQDYVLKASEQLSKDLMDDIAGLGKGEAVIVGQAIKLPALVRIYNFKELRGKAGTGQYGGEDIGILDRWNKMKRNMVNSLDIDIDF

Tests used:
[1] = biological target: B1; assay: SEC
[2] = biological target: the molecule itself; assay: SEC

| stoichiometry N [1] | Binder | binding result [2] |
| --- | --- | --- |
| 1 to 3 NurA monomers per HerA hexamer | Pyrococcus furiosus NurA (enzyme, UniProt Q8U1N8 1-451, looked up) MRLLSKQSIERITKILLDELENVRENEQIRNIINSWKPLPSPEKSSIYAVDGSRSVSRLSGTVIYFLSALAVGSGKQLRLSYANAIKSNYGTSDQIVRMQMETLENMLGYLAYRKLEGEKRAILMDGTLTGSLVRPPVYPEDIRSLNVMRALIGESDFENLLNEFLEKLRDHYRKVEEHLEKNGNYDSPILTDNVVEKLRKKYIDTKVIAYGSGKVKVKIPRKALGYSPRVIPIEVLESSRGKSVDELLQELDEEKVELYLGKDDIYDALHMTLSYIEYLYSIDKLLEVKNLAYIAKSFYTKTLARTLGVEIVDTALLDAVIRTLIGHEKEGYLEIEHAVVPPKWSFPDFLLSKFRNIEKLIDKGIHLAYVRFEQGDVIYMLQSTTNIEKILPLILHHKAGGYLRPLQLAHHGVKISYKEARHTLEALINALRNRDPALKIFVKYGRSPLE |  |
|  | B1 | binds |
